Laboratory results taken from paper PMC7615710.

Columns and labels:
PP1α (Homo sapiens) = PP1α (Homo sapiens) (UniProt P62136); conditions: cited from earlier work
[1] = biological target: Bin1 SH3 domain (513-593) (human) (UniProt O00499); test: ITC; 450 or 300 uM NS5A PRR peptide (syringe) titrated to 30 uM ASPP CTD or SH3 domain (cell), 12 °C, 25 mM HEPES pH 7.5, 150 mM NaCl, 500 uM TCEP; 25 steps of 10 ul; AB hetero association model (SEDPHAT)
Bin1 SH3 domain (513-593) (human), sequence (O00499 513-593): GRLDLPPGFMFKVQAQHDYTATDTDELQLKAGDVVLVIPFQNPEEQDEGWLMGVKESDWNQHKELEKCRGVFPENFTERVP

ASPP2 SH3, sequence (Q13625 1054-1122): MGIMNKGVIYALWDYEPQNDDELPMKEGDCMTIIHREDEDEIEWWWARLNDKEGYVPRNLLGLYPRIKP
PP1α (Homo sapiens), sequence (P62136 2-330): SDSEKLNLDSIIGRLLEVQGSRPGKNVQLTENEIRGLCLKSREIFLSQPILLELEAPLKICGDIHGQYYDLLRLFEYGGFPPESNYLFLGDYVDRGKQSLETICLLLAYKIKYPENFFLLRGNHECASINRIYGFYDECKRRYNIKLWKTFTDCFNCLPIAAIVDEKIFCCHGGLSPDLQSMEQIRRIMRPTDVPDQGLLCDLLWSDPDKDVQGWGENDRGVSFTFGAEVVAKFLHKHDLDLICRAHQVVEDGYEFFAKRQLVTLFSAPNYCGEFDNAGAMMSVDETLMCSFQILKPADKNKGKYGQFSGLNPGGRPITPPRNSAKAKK

Substance	Kd (PP1α (Homo sapiens))	Kd [1]
ASPP2 SH3 (from UniProt Q13625)	140 nM	–
HCV [1a.1] NS5A PRR peptide (peptide; other documents disagree on this pair)	–	30.3 nM
